Data taken from patent publication US20240043504A1 (published 2024).
Where a chain is given by its changes, count along the chain named.

Assays:
[1] = target: SARS-CoV-2 (2019-nCoV) Spike Protein (S1 Subunit, Fc Tag) (Sino 40591-V02H) (SARS-CoV-2, UniProt P0DTC2 16-685); assay: Luminex bead binding, supernatant
[2] = target: SARS-CoV-2 (2019-nCoV) Spike Protein (S1 Subunit, His Tag) (Sino 40591-V08H) (SARS-CoV-2, UniProt P0DTC2 16-685); assay: Luminex bead binding, supernatant
[3] = target: SARS-CoV-2 Spike Protein (S1 Subunit, Fc Tag) (Sino 40591-V02H) (SARS-CoV-2, UniProt P0DTC2 16-685); assay: Luminex, supernatant
[4] = target: SARS-CoV-2 Spike Protein (S1 Subunit, His Tag) (Sino 40591-V08H) (SARS-CoV-2, UniProt P0DTC2 16-685); assay: Luminex, supernatant

B1: mAb11006 (antibody, V domains shown)
VH: EVQLVESGGGLVQPGGSLRLSCAASGFIVSRNYMSWVRQAPGKGLEWVSVIYSGGSTFYADSVKGRFTISRHNSKNTLYLQMNSLKAEDTAVYYCARELRGYFDYWGQGTLVTVSS
VL: DIQLTQSPSFLSASVGDRVTITCWASQGISSYLAWYQQKPGKAPKLLIYAASTLQSGVPSRFSGSGSGTEFTLTISSLQPEDFATYYCQLLNSYPYTFGQGTKLEIK
[1]
  Binding signal (MFI): 2050 MFI

B2: mAb11008 (antibody, V domains shown)
VH: EVQLVESGGGLVQPGGSLRLSCAASGFTVSSNYMTWVRQAPGKGLEWVSVIYSGGSTFYADSVKGRFTISRHNSENTLYLQMNSLRAEDTAVYYCARDLAAAGTDYWGQGALVTVSS
VL: B1 VL with E81D, L90H, P95L
[1]
  Binding signal (MFI): 6880 MFI
[2]
  Binding signal (MFI): 1420 MFI

B3: mAb11004 (antibody, V domains shown)
VH: QVQLVESGGGVVQPGRSLRLSCVASGFTFSIYGMDWVRQAPGKGLEWVAVISYDGSNKYYADSVKGRFTISRDNSKNTLYLQMNSLRPEDTAVYYCAKDREAAADAFDIWGQGTMVTVSS
VL: DIQMTQSPSSVSASVGDRVTITCRASQGISSWLAWYQQKPGKAPKLLIYAASSLHSGVPSRFSGSGSGTDFTLTISSLQPEDFATYYCQQANSFRLTFGGGTKVEIK
[1]
  Binding signal (MFI): 4480 MFI
[2]
  Binding signal (MFI): 9530 MFI

B4: mAb10966 (antibody, V domains shown)
VH: EVQLVESGGGLVQPGGSLRLSCAASGLTVSSNYMSWVRQAPGKGLEWVSVIYSGGSTFYADSVKGRFTISRDNSKNTLYLQMNSLRPEDTAVYYCAREGRIAATGYGMDVWGQGTTVTVSS
VL: not shown
[3]
  MFI: 16400 MFI
[4]
  MFI: 23300 MFI

B5: mAb10956 (antibody, V domains shown)
VH: EVQLVESGGGLVQPGGSLRLSCAASGLTVSSNYMSWVRQAPGKGLEWVSVIYSGGSTFYADSVKGRFTISRDNSKNTLYLQMNSLRAEDTAVYYCARDLIKYGMDVWGQGTTVTVSS
VL: not shown
[3]
  MFI: 15000 MFI
[4]
  MFI: 20000 MFI

B6: mAb10957 (antibody, V domains shown)
VH: B5 VH with L27V, Y79F, A87I, I100G, K101P
VL: DIQLTQSPSFLSASVGDRVTITCRASQGISSYLAWYQQKPGKAPKLLIYAASTLQSGVPSRFSGSGSGTQFILTISSLQPEDFATYYCQQLNSYPGFTFGPGTKVDIKR
[3]
  MFI: 8450 MFI
[4]
  MFI: 12000 MFI

B7: mAb10998 (antibody, V domains shown)
VH: EVQLVESGGGLVHPGGSLRLSCAASGLTVSSNYMSWVRQAPGKGLEWVSVIYSGGSTYYADSVKGRFTISRHNSKNTLFLQMNSLRAEDTAVYYCARDRPITGTTLDVWGQGTTVTVSS
VL: DIQMTQSPSSLFASVGDRVTITCRASQSISSYLNWYQQKPGKAPKLLIYAASSLQSGVPSRFSGSGSGTDFTLTISSLQPEDFAFYYCQQTYSTPPITFGQGTRLEIK
[1]
  Binding signal (MFI): 724 MFI
[2]
  Binding signal (MFI): 717 MFI

B8: mAb10967 (antibody, V domains shown)
VH: EVQLVESGGGLVQPGGSLRLSCAASGFTVSSNYMSWVRQAPGKGLEWVSVIYPGGSTFYADSVKGRFTISRDNSKNTLYLQMNSLRAEDTAVYYCARDQRDFAWGQGTLVTVSS
VL: DIQMTQSPSSLSASVGDRVTITCQASQDISNYLNWYQQKPGKAPKLLIYDASNLETGVPSRFSGSGSGTDFTFTISGLQPEDIATYYCQQYDNLPPTFGQGTRLEIKR
[3]
  MFI: 15800 MFI
[4]
  MFI: 21900 MFI

B9: mAb10954 (antibody, V domains shown)
VH: EVQLVESGGGLVQPGGSLRLSCAASGITVSSNYMSWVRQAPGKGLEWVSLIYSGGSTYYADSVKGRFTISRDNSKNTLYLQMNSLRVEDTAVYYCARDHGMAAAGYNYWGQGTLVTVSS
VL: B8 VL with S30N, N31K, S76N, G77S, I83F, Y87F, T97A, R103K, L104V
[3]
  MFI: 16600 MFI
[4]
  MFI: 21300 MFI
